# What was measured:
# CCC(=O)C(C)=O = assay: Enzyme kinetics (Lineweaver-Burk plots), Gox0644; assay type: biochemical, Gluconobacter oxydans; conditions: other: Gox0644; substrate 0.025 to 10 mM
# Procedure: (§1) Determination of pH and temperature optima and enzyme kinetics: The optimum pH for enzyme activities was determined by a modified method of Salusjärvi, T. et al., Appl. Microbiol. Biotechnol. 65:306-314 (2004) using the following buffer system (50 mM final concentration each): sodium acetate pH 4.5 - 6.5, potassium phosphate pH 6.5 - 8.0, Tris-HCl pH 8.0 - 10. Temperature optima for the biocatalysts were determined under standard reaction conditions at temperatures ranging from 20 - 80 °C. The Michaelis constant (Km) for the proteins was determined from purified enzyme by Lineweaver-Burk plots. Assays were performed at optimum pH for each enzyme and at 30 °C using the top substrate and a targeted substrate. The Km for each substrate was calculated using concentrations of 0.0025 to 10 mM, and the Km NAD(P)H and NAD(P) was calculated using concentrations of 0.01 to 0.5 mM
# (§2) The Michaelis constants were determined from purified enzyme by Lineweaver-Burk plots. The Km and Vmax values for the substrates were calculated using concentrations of 0.025 to 10 mM, The optimal pH values and temperatures for enzyme activities are also shown in Tab. 11. Tab. 11: Summary of kinetic parameters
# O=CC(=O)c1ccccc1 = assay: Enzyme kinetics (Lineweaver-Burk plots), Gox0644; assay type: biochemical, Gluconobacter oxydans; conditions: other: Gox0644; substrate 0.025 to 10 mM
# Procedure: as §1, §2
# C=CC(C)=O = assay: Enzyme kinetics (Lineweaver-Burk plots), Gox2107; assay type: biochemical, Gluconobacter oxydans; conditions: other: Gox2107; substrate 0.025 to 10 mM
# Procedure: as §1, §2
# O=C1C=CC(=O)c2ccccc21 = assay: Enzyme kinetics (Lineweaver-Burk plots), Gox2107; assay type: biochemical, Gluconobacter oxydans; conditions: other: Gox2107; substrate 0.025 to 10 mM
# Procedure: as §1, §2
# [1] = substrate: C=CC(C)=O; assay: purified protein, by the assay type; conditions: other: Gox0502; substrate 0.025 to 10 mM
# [2] = substrate: CCCC(=O)C(C)=O; assay: Enzyme kinetics (Lineweaver-Burk plots), Gox1615; assay type: biochemical, Gluconobacter oxydans; conditions: other: Gox1615; substrate 0.025 to 10 mM
# Procedure: as §1, §2
# [3] = substrate: CC(=O)C=O; assay: Enzyme kinetics (Lineweaver-Burk plots), Gox1615; assay type: biochemical, Gluconobacter oxydans; conditions: other: Gox1615; substrate 0.025 to 10 mM
# Procedure: as §1, §2
# [4] = substrate: C=CC(C)=O; assay: Enzyme kinetics (Lineweaver-Burk plots), Gox2684; assay type: biochemical, Gluconobacter oxydans; conditions: other: Gox2684; substrate 0.025 to 10 mM
# Procedure: as §1, §2
# [5] = substrate: CC=O; assay: Enzyme kinetics (Lineweaver-Burk plots), aldehyde dehydrogenase Gox1122; assay type: biochemical, Gluconobacter oxydans
# Procedure: Determination of pH and temperature optima and enzyme kinetics: The optimum pH for enzyme activities was determined by a modified method of Salusjärvi, T. et al., Appl. […] Temperature optima for the biocatalysts were determined under standard reaction conditions at temperatures ranging from 20 - 80 °C. The Michaelis constant (Km) for the proteins was determined from purified enzyme by Lineweaver-Burk plots. Assays were performed at optimum pH for each enzyme and at 30 °C using the top substrate and a targeted substrate.
# [6] = substrate: NC(=O)c1ccc[n+]([C@@H]2O[C@H](COP(=O)(O)OP(=O)(O)OC[C@H]3O[C@@H](n4cnc5c(N)ncnc54)[C@H](OP(=O)(O)O)[C@@H]3O)[C@@H](O)[C@H]2O)c1; assay: purified protein, by the assay type; conditions: other: Gox1122; for the cofactor NADP
# [7] = other: Gox1122, aldehyde concentrations from 0.0025 to 10 mM
# [8] = other: Tab. 11, Gox1122, substrate 0.025 to 10 mM
molecule,measurement,setting,value
Gox0644 (Gluconobacter oxydans 621H),Km,CCC(=O)C(C)=O,5600 µM
same,Vmax,CCC(=O)C(C)=O,79.0 µmol/min/mg
same,Km,O=CC(=O)c1ccccc1,4700 µM
same,Vmax,O=CC(=O)c1ccccc1,93.0 µmol/min/mg
Gox2107 (Gluconobacter oxydans 621H),Km,C=CC(C)=O,3800 µM
same,Vmax,C=CC(C)=O,119 µmol/min/mg
same,Km,O=C1C=CC(=O)c2ccccc21,10 µM
same,Vmax,O=C1C=CC(=O)c2ccccc21,217 U/mg protein
Gox0502 (Gluconobacter oxydans 621H) (protein) MPTLFDPIDFGPIHAKNRIVMSPLTRGRADKEAVPTPIMAEYYAQRASAGLIITEATGISREGLGWPFAPGIWSDAQVEAWKPIVAGVHAKGGKIVCQLWHMGRMVHSSVTGTQPVSSSATTAPGEVHTYEGKKPFEQARAIDAADISRILNDYENAARNAIRAGFDGVQIHAANGYLIDEFLRNGTNHRTDEYGGVPENRIRFLKEVTERVIAAIGADRTGVRLSPNGDTQGCIDSAPETVFVPAAKLLQDLGVAWLELREPGPNGTFGKTDQPKLSPQIRKVFLRPLVLNQDYTFEAAQTALAEGKADAIAFGRKFISNPDLPERFARGIALQPDDMKTWYSQGPEGYTDYPSATSGPN,Km,[1],100 µM
same,Vmax,[1],21.0 µmol/min/mg
Gox1615 (Gluconobacter oxydans 621H) (protein) MASDTIRIPGIDTPLSRVALGTWAIGGWMWGGPDDDNGVRTIHAALDEGINLIDTAPVYGFGHSEEIVGRALAEKPNKAHVATKLGLHWVGEDEKNMKVFRDSRPARIRKEVEDSLRRLRVETIDLEQIHWPDDKTPIDESARELQKLHQDGKIRALGVSNFSPEQMDIFREVAPLATIQPPLNLFERTIEKDILPYAEKHNAVVLAYGALCRGLLTGKMNRDTTFPKDDLRSNDPKFQKPNFEKYLAAMDEFEKLAEKRGKSVMAFAVRWVLDQGPVIALWGARKPGQVSGVKDVFGWSLTDEEKKAVDDILARHVPNPIDPTFMAPPARD,Km,[2],3200 µM
same,Vmax,[2],6.0 µmol/min/mg
same,Km,[3],3800 µM
same,Vmax,[3],22.0 µmol/min/mg
Gox2684 (Gluconobacter oxydans 621H) (protein) MTSLFEPIELGSIYAKNRILMAPLTRGRGTRDHVPTPIMAEYYAQRAGAGLIISEATGISREGLGWPYAPGLWSQEQVEAWKPITAAVHAKGGKIVAQLWHMGRMVHSSVTGQQPVSCSATKAPEALHTYDGKQAPEVARPLTKEDIARILNDYENAARNALQAGFDGVQIHAANGYLIDEFLRDGTNHRSDEYGGSPENRIRFLREVTERVIATIGAHKTSVRLSPNGDTVGCIDSHPEQVFVPAAKLLNDLDIAFLELREPGPNGTFGKTDQPKLHGPIREVFRKPLVLNQDYTREEAIETVATGVADAISFGRPFLANPDLVRRLEDNLPQNKDDIRTWYSQGAEGYTDYPLAR,Km,[4],300 µM
same,Vmax,[4],11.3 µmol/min/mg
Gox1122 (Gluconobacter oxydans 621H) (protein) MAYATINPYTGETLKTFPEATDQEVQTALTEAYDAFKSWRHTPFAERAKIMTAAANILRRDIDKYSKLLTLEMGKIYAEAKAETILSAEIFEYYAKNAEELLKAEKLPVADPKEGEAVLIHQPQGIVFAIEPWNFPFYQIARIIAPQLSAGNTVILKHASNVPQCAAAFDDLMKEAGLPKGGFRNLYAARHHTETILKDPRVCGVALTGSEGAGAVVAGIAAQALKKSTMELGGSDAFLVLDDADLEKTAKWAAFGRHWNAGQVCVSAKRLIVADAVYDRFVELYKAEVAKLIPGDPMDPKTTLAPLSSQKAADDLKAQVEEAKKHGAVVEAIGPSVPEKGAFFQPLLMTNLHENNEARLWEFFGPVTQLYRAKDDADAIRIANDSPFGLGGSVFTKDTQRGVKVAEQIYTGMVYINHPTMVKADLPFGGVARSGYGRELIGLGIKEFVNHKLIDVVDIDAPF,Km,[5]; [7],255 µM
same,Vmax,[5]; [7],196 U/mg protein
same,Km,[5]; [8],200 µM
same,Vmax,[5]; [8],196 µmol/min/mg
same,Km,[6],73 µM

# Source: EP2119770B1, “Production of alpha-oxyfunctionalized carbonyl compounds” (priority 2008, dated 2009)
